Data: US5776888A, “Compounds and compositions for delivering active agents” (Emisphere Technologies, Inc., priority 1997, dated 1998)
Like-named read-outs stand apart in the source and are kept apart here.

Parameters: species or system rats
Settings: rat, in vivo, 1 mg/kg

For interferon, the “Mean peak serum interferon concentration” value was 79±100 and the “Mean peak serum interferon concentration” value (po) was 1951±1857.
